Biological target: extracellular fragment of lymphotoxin-beta receptor (LTβR) (629-LR-100, R&D Systems) (UniProt P36941)
Assay: SPR

“Ixodes persulcatus salivary protein (IpSAP), recombinant (natural protein)” showed a Kd of 124 nM.

From publication PMC9704693
